Results from patent US20170321218A1, “FACTOR XIA-SPECIFIC APTAMERS” (CANADIAN BLOOD SERVICES, published 2017).

Experiments:
[1] = biological target: thrombin (UniProt P00734); assay: cell-based or functional assay
[2] = biological target: T1, Factor XIa (FXIa) (UniProt P03951;P03951 P03951:19-387,P03951:388-625); assay: SPR; ±0.1 nM; ka 5.2e4 M-1s-1, kd 9.5e-5 s-1; 100 mM HEPES pH 7.4, 150 mM NaCl, 0.01% Tween 20, 25 C; SCRAPT reference cell subtracted; details: chain copies: 2,2; label: 3'-biotin; predicted stem-loop hairpin with bulge and two small loops
T1 sequence (P03951 19-387, chain 1 of 2): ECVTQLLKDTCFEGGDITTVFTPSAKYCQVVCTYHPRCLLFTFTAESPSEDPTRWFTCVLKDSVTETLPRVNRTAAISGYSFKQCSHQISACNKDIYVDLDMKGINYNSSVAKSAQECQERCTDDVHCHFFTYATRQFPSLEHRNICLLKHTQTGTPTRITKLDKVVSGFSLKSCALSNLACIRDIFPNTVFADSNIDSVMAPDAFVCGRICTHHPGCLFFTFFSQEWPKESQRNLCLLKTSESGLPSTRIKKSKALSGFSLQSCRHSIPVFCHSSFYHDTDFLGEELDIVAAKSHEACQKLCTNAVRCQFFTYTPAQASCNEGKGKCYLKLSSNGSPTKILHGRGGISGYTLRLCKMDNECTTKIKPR
T1 sequence (P03951 388-625, chain 2 of 2): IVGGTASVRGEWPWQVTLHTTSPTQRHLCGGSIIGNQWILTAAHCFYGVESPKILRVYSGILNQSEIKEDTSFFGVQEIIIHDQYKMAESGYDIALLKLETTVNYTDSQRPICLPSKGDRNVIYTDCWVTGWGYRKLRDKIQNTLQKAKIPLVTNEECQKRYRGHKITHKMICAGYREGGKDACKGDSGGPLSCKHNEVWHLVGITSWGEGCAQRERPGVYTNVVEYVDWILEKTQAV
Protocol: Kinetic measurements of aptamer binding were analyzed by SPR on a Biacore T200 (GE Healthcare). To immobilize the aptamer, a CM5 sensor chip (GE Healthcare) was activated with a 0.2 M N-ethyl-N′-(dimethylamino-propyl) carbodiimide (EDC) and 0.05 M N-hydroxysuccinimide (NHS) (Sigma) solution, followed by binding of streptavidin (0.2 mg/ml, pH 4.5). FELIAP and SCRAPT (3′ biotinylated) in 100 mM HEPES (pH 7.4), 150 mM NaCl, 0.01% Tween 20 were immobilized on the streptavidin-coated chips at a flow rate of 10 μL/min to 100 response units (RU). Flow cells were regenerated with 0.2% SDS (w/vol). FXIa at concentrations varying from 15.671 nM to 500 nM was injected at a flow rate of 50 μl/min for 180 s to monitor association, and HEPES buffer for 1800 s to monitor dissociation. The signal from the SCRAPT-immobilized flow cell was used as a reference and subtracted from the signal arising from FXIa binding to the FELIAP-immobilized cell. Binding of FXIa and aptamer was quantified by global analysis of on and off rates using the Langmuir 1:1 binding model, as determined with the instrument's software provided by the manufacturer (Biacore). All experiments were done in triplicate.

[3] = biological target: T1, Factor XIa (FXIa); assay: inhibition; competitive inhibition of S2366 amidolysis; PPNE pH 7.4, 37 C; details: chain copies: 2,2; predicted stem-loop hairpin with bulge and two small loops
Protocol: The mode of inhibition of FELIAP was investigated by fixing the concentrations of chromogenic substrate and FXIa and increasing the concentration of FELIAP and measuring the rate of substrate cleavage. A dose-dependent reduction in the reaction rate was observed as FELIAP was increased from 0 to 20 μM, while the same concentrations of SCRAPT had no inhibitory effect (FIG. 2A). Next, the concentration of chromogenic substrate S2366 was varied while keeping FXIa constant at different concentrations of FELIAP (FIG. 2B).

“recombinant His-tagged hirudin variant 3” showed a thrombin generation assay, FXI-depleted plasma with tissue factor: time to peak thrombin [1] of 3.1 fold.

B1: FELIAP 3'-biotin (ssDNA)
DNA: GAATTCTAATACGACTCACTATAAACCTATCGGACTATTGTTAGTGATTTTTATAGTGTGCGTCCAACACATCG
B1 was tested, and the Kd [2] was 0.0018 µM.

B2: FELIAP (Apt10-10) (ssDNA)
DNA: B1 DNA
Molecule B2 has a Ki [3] of 29 µM.
